B1: F-BAR and double SH3 domains protein 1, residues 467 to 528; numbered along this chain, Q86WN1 (parent)
chain: RALPCPAHVVFRYQAGREDELTITEGEWLEVIEEGDADEWVKARNQHGEVGFVPERYLNFPD
B2: CD2-associated protein, residues 109 to 169; numbered along this chain, Q9Y5K6 (parent)
chain: KKRQCKVLFEYIPQNEDELELKVGDIIDINEEVEEGWWSGTLNNKLGLFPSNFVKELEVTD

± gives the uncertainty stated by the source.

Variants of B1 are the subject of one series. The series can be described thus: abundance fitness (aPCA) (normalised: wild type 0, dead -1); higher = more abundant; growth selection in yeast, the domain comes from the species named. The following applies: Homo sapiens.
Regarding G26Q, the abundance fitness is -0.34 ± 0.13.

Take G26F: the abundance fitness is -0.871 ± 0.2.

For the variant F11C, the abundance fitness was found to be 0.014 ± 0.058.

For the variant F11S, the abundance fitness stood at 0.013 ± 0.051.

F11L: the abundance fitness was -0.061 ± 0.037.

For the variant F11M, the abundance fitness worked out at 0.141 ± 0.053.

F11Q: the abundance fitness is -0.103 ± 0.07.

Regarding F11Y, the abundance fitness stood at 0.032 ± 0.1.

As to N59V, the abundance fitness was -0.078 ± 0.046.

With N59H, the abundance fitness turned out to be 0.003 ± 0.086.

Turning to N59A, the abundance fitness amounted to 0.054 ± 0.06.

For N59P, the abundance fitness was -0.977 ± 0.16.

With A2M, the abundance fitness was determined as 0.104 ± 0.085.

Turning to A2L, the abundance fitness is -0.007 ± 0.045.

As for A2V, the abundance fitness was 0.128 ± 0.055.

In the case of R1K, the abundance fitness was -0.339 ± 0.094.

For the variant R1S, the abundance fitness was -0.153 ± 0.058.

Regarding R1V, the abundance fitness is -0.519 ± 0.08.

In the case of K42H, the abundance fitness is -0.571 ± 0.14.

With K42A, the abundance fitness was -0.511 ± 0.086.

With K42I, the abundance fitness is 0.092 ± 0.085.

As for K42W, the abundance fitness is -0.181 ± 0.083.

As to K42S, the abundance fitness was -0.325 ± 0.058.

Consider T22M, for which the abundance fitness is -0.652 ± 0.088.

Regarding T22L, the abundance fitness was -0.778 ± 0.065.

For T22H, the abundance fitness is -0.494 ± 0.16.

For T22D, the abundance fitness is -0.117 ± 0.097.

As for T22S, the abundance fitness turned out to be 0.069 ± 0.051.

Consider T22I, for which the abundance fitness is -0.847 ± 0.16.

On to T22E, for which the abundance fitness is -0.5 ± 0.11.

E39I: the abundance fitness was -0.1 ± 0.096.

Turning to E39H, the abundance fitness was found to be 0.188 ± 0.1.

In the case of E39C, the abundance fitness was -0.103 ± 0.11.

As to E39T, the abundance fitness is 0.02 ± 0.055.

For E39D, the abundance fitness was -0.228 ± 0.094.

As to E39A, the abundance fitness is -0.016 ± 0.052.

In the case of L3D, the abundance fitness was -0.486 ± 0.092.

For the variant L3R, the abundance fitness was -0.333 ± 0.044.

In the case of L3T, the abundance fitness is -0.201 ± 0.072.

On to E20C, for which the abundance fitness was -0.103 ± 0.079.

Consider E20P, for which the abundance fitness was -1.01 ± 0.17.

Turning to E20W, the abundance fitness was -0.934 ± 0.14.

As to E20F, the abundance fitness is -0.284 ± 0.078.

Turning to E49L, the abundance fitness is -0.13 ± 0.047.

As to E49F, the abundance fitness is -0.088 ± 0.09.

As for E49S, the abundance fitness is -0.022 ± 0.052.

As for E49K, the abundance fitness was -0.026 ± 0.096.

As to E49I, the abundance fitness came to 0.1 ± 0.095.

E34C: the abundance fitness was determined as 0.008 ± 0.072.

As to E34L, the abundance fitness is -0.028 ± 0.044.

Turning to E34F, the abundance fitness worked out at 0.127 ± 0.095.

Turning to R56Q, the abundance fitness stood at 0.012 ± 0.053.

In the case of R56P, the abundance fitness is -0.129 ± 0.062.

Consider R56F, for which the abundance fitness is -0.164 ± 0.072.

R56G: the abundance fitness was -0.125 ± 0.061.

As for G35I, the abundance fitness was -0.232 ± 0.19.

Regarding G35F, the abundance fitness is -0.172 ± 0.11.

In the case of G35L, the abundance fitness was -0.318 ± 0.047.

G35K: the abundance fitness was -0.126 ± 0.07.

As for G35V, the abundance fitness was -0.005 ± 0.061.

Regarding G35T, the abundance fitness worked out at 0.063 ± 0.088.

For W40S, the abundance fitness was -0.25 ± 0.05.

On to W40M, for which the abundance fitness came out at 0.037 ± 0.073.

W40G: the abundance fitness was -0.547 ± 0.07.

Consider I32L, for which the abundance fitness is -0.059 ± 0.051.

For I32T, the abundance fitness was -0.256 ± 0.067.

Turning to I32G, the abundance fitness was -0.674 ± 0.09.

On to I32P, for which the abundance fitness was -0.726 ± 0.11.

For D62A, the abundance fitness turned out to be 0.012 ± 0.075.

For the variant D62P, the abundance fitness is -0.235 ± 0.082.

On to D62R, for which the abundance fitness is -0.309 ± 0.15.

As to D62K, the abundance fitness was -0.148 ± 0.15.

D62S: the abundance fitness is 0 ± 0.056.

Turning to D62G, the abundance fitness is -0.057 ± 0.089.

For D38M, the abundance fitness was -0.17 ± 0.068.

As to D38L, the abundance fitness worked out at 0.016 ± 0.044.

Turning to D38G, the abundance fitness was 0.023 ± 0.055.

Regarding P4F, the abundance fitness is -0.451 ± 0.087.

Consider P4C, for which the abundance fitness was -0.346 ± 0.15.

As to P4L, the abundance fitness was -0.567 ± 0.076.

In the case of P4K, the abundance fitness is -0.359 ± 0.15.

As to P4T, the abundance fitness is -0.136 ± 0.093.

D19G: the abundance fitness came to 0.159 ± 0.067.

D19F: the abundance fitness is -0.006 ± 0.058.

Turning to D19R, the abundance fitness is -0.048 ± 0.039.

For the variant D19P, the abundance fitness is -0.396 ± 0.087.

For the variant Q46A, the abundance fitness was 0.036 ± 0.057.

Regarding Q46L, the abundance fitness is -0.056 ± 0.045.

In the case of Q46I, the abundance fitness was -0.142 ± 0.1.

For Q46E, the abundance fitness is -0.052 ± 0.056.

As for Q46N, the abundance fitness was -0.027 ± 0.17.

Consider D36P, for which the abundance fitness is 0.13 ± 0.055.

Take D36W: the abundance fitness is 0.006 ± 0.071.

For D36G, the abundance fitness is -0.049 ± 0.094.

Turning to D36T, the abundance fitness was -0.042 ± 0.065.

Turning to D36S, the abundance fitness is -0.045 ± 0.053.

For D36E, the abundance fitness came out at 0.032 ± 0.072.

For V10E, the abundance fitness is -0.247 ± 0.11.

Take V10K: the abundance fitness is -0.094 ± 0.085.

Variants of B2 are the subject of another series. The series is described as above. The settings on record: Homo sapiens.
As to V59Y, the abundance fitness was found to be 0.036 ± 0.19.

As to V59S, the abundance fitness came out at 0.163 ± 0.088.

Turning to V59K, the abundance fitness was -0.283 ± 0.27.

For V59R, the abundance fitness was -0.131 ± 0.078.

In the case of V59C, the abundance fitness was -0.123 ± 0.13.

For the variant V59Q, the abundance fitness was -0.166 ± 0.13.

For V59M, the abundance fitness is -0.219 ± 0.12.

Consider V59I, for which the abundance fitness is -0.087 ± 0.13.

Take V59N: the abundance fitness is -0.342 ± 0.47.

With V59W, the abundance fitness is -0.117 ± 0.079.

In the case of V59A, the abundance fitness amounted to 0.001 ± 0.2.

Turning to V59L, the abundance fitness came to 0.013 ± 0.072.

Take V59E: the abundance fitness worked out at 0.174 ± 0.14.

In the case of V59P, the abundance fitness is -0.138 ± 0.14.

On to V59F, for which the abundance fitness turned out to be 0.229 ± 0.14.

As to V59T, the abundance fitness was 0.01 ± 0.1.

For V59H, the abundance fitness was -0.012 ± 0.13.

As to T60E, the abundance fitness came to 0.019 ± 0.13.

Consider T60S, for which the abundance fitness was -0.039 ± 0.1.

On to T60K, for which the abundance fitness is -0.006 ± 0.39.

Turning to T60M, the abundance fitness was -0.257 ± 0.18.

As to T60Y, the abundance fitness was -0.489 ± 0.25.

On to T60C, for which the abundance fitness is -0.183 ± 0.19.

Take T60W: the abundance fitness is -0.198 ± 0.3.

Consider T60V, for which the abundance fitness is -0.399 ± 0.27.

Regarding T60Q, the abundance fitness turned out to be 0.039 ± 0.13.

Take T60D: the abundance fitness amounted to 0.183 ± 0.28.

Turning to T60R, the abundance fitness was -0.366 ± 0.13.

On to T60H, for which the abundance fitness was 0.045 ± 0.16.

With T60L, the abundance fitness stood at 0.01 ± 0.14.

L57T: the abundance fitness was -0.269 ± 0.13.

Take L57W: the abundance fitness was -0.486 ± 0.18.

For L57R, the abundance fitness is -0.64 ± 0.15.

Take L57V: the abundance fitness is -0.239 ± 0.13.

For the variant L57Q, the abundance fitness was -0.485 ± 0.27.

With L57S, the abundance fitness was -0.601 ± 0.14.

As for D61C, the abundance fitness was -0.561 ± 0.23.

For D61M, the abundance fitness was -0.106 ± 0.24.

Regarding D61K, the abundance fitness was -0.582 ± 0.35.

Take D61S: the abundance fitness is -0.692 ± 0.34.

In the case of D61Q, the abundance fitness was -0.014 ± 0.24.

On to D61A, for which the abundance fitness was -0.29 ± 0.22.

For the variant D61R, the abundance fitness is -0.261 ± 0.18.

As to D61V, the abundance fitness is -0.312 ± 0.24.

Consider D61Y, for which the abundance fitness is -0.376 ± 0.21.

D61E: the abundance fitness was 0.283 ± 0.26.

For the variant D61P, the abundance fitness was 0.04 ± 0.32.

D61L: the abundance fitness was -0.301 ± 0.14.

Regarding D61N, the abundance fitness was -0.273 ± 0.28.

As for D61H, the abundance fitness was found to be 0.346 ± 0.23.

For the variant D61T, the abundance fitness was -0.329 ± 0.26.

In the case of E58S, the abundance fitness is -0.035 ± 0.1.

Take E58Y: the abundance fitness is -0.045 ± 0.14.

On to E58L, for which the abundance fitness is -0.062 ± 0.081.

E58R: the abundance fitness is -0.232 ± 0.1.

As for E58T, the abundance fitness was -0.211 ± 0.18.

Consider E58I, for which the abundance fitness was -0.23 ± 0.26.

E58V: the abundance fitness was determined as 0.078 ± 0.14.

As to E58A, the abundance fitness is -0.305 ± 0.15.

Consider E58Q, for which the abundance fitness was determined as 0.202 ± 0.19.

For the variant E58N, the abundance fitness is -0.057 ± 0.12.

On to E58D, for which the abundance fitness amounted to 0.056 ± 0.18.

As for E58G, the abundance fitness was 0.094 ± 0.11.

Regarding E58M, the abundance fitness came out at 0 ± 0.26.

With E58C, the abundance fitness is -0.073 ± 0.12.

Take E58F: the abundance fitness is -0.207 ± 0.15.

E58W: the abundance fitness is 0.098 ± 0.16.

With E58K, the abundance fitness came to 0.027 ± 0.12.

The values are drawn from the Human Domainome abundance scans (Beltran et al. 2025).
